In patent US20060263354A1 (published 2006):

B1: 2-43-1 (antibody, V domains shown)
VH: EVQLLESGGGLVQPGGSLRLSCAASGFTFSSYAMSWVRQAPGKGLEWVSAISGSGGSTFYADSVTGRFTISRDNSKNTLFLQLNSLRAEDTAVYHCAKDGRFNWNYGASDIWGQGTMVTVSS
VL: EIVMTQSPATLSVSPGERATLSCRTSQSVSSNLAWYQQKPGQAPRLLIYGASTRATGIPARFSGSGSGTEFTLTISSLQSEDFAVYYCQQYNNWPLTFGGGTKVEIKR
B2: 2-177-1 (antibody, V domains shown)
VH: EVQLLESGGGLIQPGGSLRLSCAASGFTFSSFAMSWVRQAPGKGLEWVSTISGSGGSTYYADFVKGRFTISRDNSKNTLYLQMNSLRAEDTAVYYCAKDGRYNWNYGAFDIWGQGTMVTVSS
VL: EIVMTQSPATLSVSPGERATLSCRASQSVRSNLAWFQQKPGQAPRLLIYGASTRATGIPARFSGSGSGTEFTLTISSLQSEDFAVYYCQQYNNWPLTFGGGTKVEIKR
B3: 2-112-1 (antibody, V domains shown)
VH: EVQLLESGGGLIQPGGSLRLSCAASGFTFSSFAMSWVRQAPGKGLEWVSTISGSGGYTFYADSVKGRFTISRDNSKNTLYLQMNSLRAEDTAVYYCAKDGRYNWNYGAFDIWGQGTMVTVSS
VL: EIVMTQSPATLSVSPGERATLSCRASQSVSSNLAWYQQKPGQAPRLLIYGASTRATGFPARFSGSGSGTEFTLTISSLQSEDFAIYYCQQYNNWPLTFGGGTKVEIKR
B4: 1-257-1 (antibody, V domains shown)
VH: EVQLVESGGGLVKPGGSLRLSCAASGFTFSSYSMNWVRQAPGKGLEWVSSISSSSSYIYYADSVKGRFTISRDNAKNSLYLQMNSLRAEDTAVYYCARDRGYYYGMDVWGQGTTVTVSS
VL: DIQMTQSPSSLSASVGDRVTLTCRASQGIRNALGWYQQKPGKAPKRLIYGASSLQSGVPSRFSGSGSGTEFTLTISSLQPEDFATYYCLQHNSYPFTFGPGTKVDIKR
B5: 1-116-1 (antibody, V domains shown)
VH: EVQLVESGGGLVKPGGSLRLSCAASGFTFSSYSMNWVRQAPGKGLEWVSSISSSSSYIYYADSVKGRFTISRDNAKNSLYLQMNSLRAEDTAVYYCARDRGYSYGLDYWGQGTLVTVSS
VL: DIQMTQSPSSLSASVGDRVTITCRASQGIRNALGWYQQKPGKAPQRLIYAASSLQSGVPSRFSGSGSGTEFTLTISSLQPEDFATYYCLQHNSYPRTFGQGTKVEIKR
B6: 1-66-1 (antibody, V domains shown)
VH: EVQLVESGGGLVKPGGSLRLSCAASGFTFSSYSMNWVRQAPGKGLEWVSSISSSSSYIYYADSVKGRFTISRDNAKNSLYLQMNSLRAEDTAVYYCARDRGYSYGLDYWGQGTLVTVSS
VL: DIQMTQSPSSLSASVGDRVTITCRASQGIRNDLGWYQQKPGKAPKRLIYAASSLQSGVPSRFSGSGSGTEFTLTISSLQPEDFATYYCLQLNSYPFTFGPGTKVDIKR
B7: 1-314-1 (antibody, V domains shown)
VH: EVQLVESGGGLVKPGGSLRLSCAASGFTFSSYSMNWVRQAPGKGLEWVSSISSSSSYIYYADSVKGRFTISRDNAKNSLYLQMNSLRAEDTTVYYCARDRGYLYGMDVWGQGTTVTVSS
VL: DIQMTQSPSSLSASVGDRVTITCRASQAIRNDLGWYQQKPGKAPKRLIYAASSLQSGVPSRFSGSGSGTEFTLTISSLQPEDFATYYCLQHNSYPRTFGQGTKVEIKR
B8: 1-136-3 (antibody, V domains shown)
VH: EVQLVESGGGLVKPGGSLRLSCAASGFTFSSYSMNWVRQAPGKGLEWVSSISSSSSYIYYADSVKGRFTISRDNAKNSLYLQMNSLRAEDTAVYYCARDRGYSYGIDYWGQGTLVTVSS
VL: DIQMTQSPSSLSASVGDRVTITCRASQGIRNALGWYQQKPGKAPKRLIYAASSLQSGVPSRFSGSGSGTEFTLTISSLQPEDFATYYCLQHNSYPRTFGQGTKVEIKR
B9: 1-268-1 (antibody, V domains shown)
VH: EVQLVESGGGLVKPGGSLRLSCAASGFTFSSYSMNWVRQAPGKGLEWVSSISSSSSYIYYADSVKGRFTISRDNAKNSLYLQMNSLRAEDTAVYYCARDRGSYFLFDYWGQGTLVTVSS
VL: DMQMTQSPSSLSASVGDRVTITCRASQGIRNDLGWYQQKPGKAPKRLIYGASSLQSGVPSRFSGSGSGTEFTLTISSLQPEDSATYYCLQHNSYPLTFGGGTKVEIKR

Target: mature GDF8 (UniProt O14793 267-375)
Sequence (O14793 267-375): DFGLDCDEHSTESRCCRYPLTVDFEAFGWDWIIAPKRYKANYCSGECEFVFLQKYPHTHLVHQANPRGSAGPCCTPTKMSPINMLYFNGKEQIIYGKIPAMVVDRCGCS
Test: BIAcore

Row | Binder | Kd [pM]
1 | B1 | 1500
2 | B2 | 890
3 | B3 | 11
4 | B4 | 160
5 | B5 | 12
6 | B6 | 83
7 | B7 | 110
8 | B8 | 43
9 | B9 | 240
